Experimental data: the supplement of paper PMC7877785
± gives the uncertainty stated by the source.

Test: self-splicing fitness, log relative to wild type (ln ratio); higher = more splicing; Tetrahymena group I intron in knt gene, E. coli kanamycin selection, DiMSum; sequences stand for … in CUCUCU…GGAGGGAAAAGUUAUCAGGCAUGCACCUGGUAGCUAGUCUUUAAACCAAUAGAUUGCAUCGGUUUAAAAGGCAAGACCGUCAAAUUGCGGGAAAGGGGUCAACAGCCGUUCAGUACCAAGUCUCAGGGGAAACUUUGAGAUGGCCUUGCAAAGGGUAUGGUAAUAAGCUGACGGACAUGGUCCUAACCACGCAGCCAAGUCCUAAGUCAACAGAUCUUCUGUUGAUAUGGAUGCAGUUCACAGACUAAAUGUCGGUCGGGGAAGAUGUAUUCUUCUCAUAAGAUAUAGUCGGACCUCUCCUUAAUGGGAGCUAGCGGAUGAAGUGAUGCAACACUGGAGCCGCUGGGAACUAAUUUGUAUGCGAAAGUAUAUUGAUUAGUUUUGGAGUACUCGUGGUCG
Procedure, shortened: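 DiMSum derived fitness as the error-weighted combination of fold changes across replicates, kanamycin versus no kanamycin, normalised to wild type. E. coli BL21(DE3) held the library, which randomised all eight P1ex-region intron nucleotides within the knt kanamycin-resistance gene on pET-22b(+). Six replicate transformations grew overnight at 37°C or 30°C on LB agar with or without 25 μg/mL kanamycin, also containing 100 μg/mL carbenicillin, 50 μM IPTG and 0.2% rhamnose, and pooled colonies were amplicon-sequenced on an Illumina HiSeq 2500.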

Sequence | self-splicing fitness (ln) (30 °C) | self-splicing fitness (ln) (37 °C)
GAUCAGCAAUAUUACGUUAU | -1.46 ± 0.07 | -0.207 ± 0.092
GAUCAGCAAUAUUACGUUCG | -1.33 ± 0.063 | 0.136 ± 0.073
GAUGAGCAAUAUUACGAAGA | -3.25 ± 0.17 | -0.937 ± 0.14
GAUGAGCAAUAUUACGAAGU | -2.87 ± 0.22 | -2.84 ± 0.28
GAUGAGCAAUAUUACGACCC | -0.245 ± 0.34 | -0.0127 ± 0.3
GAUGAGCAAUAUUACGACCU | -1.4 ± 0.18 | -1.36 ± 0.16
GAUGAGCAAUAUUACGAGAG | – | -3.01 ± 0.29
GAUGAGCAAUAUUACGAUGA | -2.24 ± 0.2 | -2.79 ± 0.27
GAUGAGCAAUAUUACGCAAG | -2.46 ± 0.38 | -1.51 ± 0.36
GAUGAGCAAUAUUACGCCCA | -1.17 ± 0.23 | 0.487 ± 0.28
GAUGAGCAAUAUUACGCCGU | – | -2.33 ± 0.46
GAUGAGCAAUAUUACGCCUC | -2.56 ± 0.36 | -1.01 ± 0.38
GAUGAGCAAUAUUACGCGAC | -1.69 ± 0.17 | -0.921 ± 0.15
GAUGAGCAAUAUUACGUCAG | -3.78 ± 0.32 | -2.31 ± 0.26
GAUGAGCAAUAUUACGUCUA | -1.51 ± 0.31 | -1.2 ± 0.25
GAUGAGCAAUAUUACGUGAA | -3.72 ± 0.22 | -1.91 ± 0.2
GAUGAGCAAUAUUACGUGAC | -3.05 ± 0.34 | -2.3 ± 0.42
GAUGAGCAAUAUUACGUGGU | -3.36 ± 0.37 | –
GAUGAGCAAUAUUACGUUCU | -2.89 ± 0.16 | -1.32 ± 0.12
GAUUAGCAAUAUUACGAAGU | -2.54 ± 0.16 | -0.783 ± 0.12
GAUUAGCAAUAUUACGACCA | -0.409 ± 0.23 | -0.295 ± 0.34
GAUUAGCAAUAUUACGACGG | – | -2.39 ± 0.33
GAUUAGCAAUAUUACGACGU | -0.442 ± 0.063 | 0.93 ± 0.089
GAUUAGCAAUAUUACGAGAA | – | -1.51 ± 0.3
GAUUAGCAAUAUUACGAGUG | -1.25 ± 0.094 | -0.616 ± 0.1

Sequence | self-splicing fitness (ln) (30 °C) | self-splicing fitness (ln) (37 °C)
GAUUAGCAAUAUUACGAUGC | -0.852 ± 0.083 | -0.525 ± 0.095
GAUUAGCAAUAUUACGAUGG | -3.28 ± 0.15 | -1.17 ± 0.12
GAUUAGCAAUAUUACGAUUG | -1.71 ± 0.13 | -0.919 ± 0.18
GAUUAGCAAUAUUACGCAAU | -2.41 ± 0.33 | -1.9 ± 0.36
GAUUAGCAAUAUUACGCACG | -1.36 ± 0.12 | -1.14 ± 0.14
GAUUAGCAAUAUUACGCAGG | – | -0.28 ± 0.27
GAUUAGCAAUAUUACGCCAU | – | -1.97 ± 0.47
GAUUAGCAAUAUUACGCCCG | 0.359 ± 0.24 | –
GAUUAGCAAUAUUACGCUCA | -0.572 ± 0.12 | -0.182 ± 0.17
GAUUAGCAAUAUUACGCUUA | -1.22 ± 0.13 | -0.752 ± 0.095
GAUUAGCAAUAUUACGGACU | -0.413 ± 0.086 | -0.223 ± 0.1
GAUUAGCAAUAUUACGGCAC | -0.128 ± 0.13 | -0.42 ± 0.12
GAUUAGCAAUAUUACGGGAC | -2.53 ± 0.18 | -1.53 ± 0.14
GAUUAGCAAUAUUACGGGCC | -1.66 ± 0.32 | -2.01 ± 0.47
GAUUAGCAAUAUUACGUAAA | -2.19 ± 0.15 | -0.793 ± 0.19
GAUUAGCAAUAUUACGUAAG | -2.02 ± 0.18 | -0.715 ± 0.29
GAUUAGCAAUAUUACGUCGA | -1.83 ± 0.12 | -0.819 ± 0.11
GAUUAGCAAUAUUACGUGCG | -2.8 ± 0.16 | 0.0923 ± 0.12
GAUUAGCAAUAUUACGUGCU | -2.46 ± 0.18 | -1.26 ± 0.14
GCAAAGCAAUAUUACGAUAU | -1.41 ± 0.075 | 0.42 ± 0.082
GCAAAGCAAUAUUACGAUUU | -0.938 ± 0.06 | -0.449 ± 0.082
GCAAAGCAAUAUUACGCAAG | -3.95 ± 0.19 | -2.22 ± 0.14
GCAAAGCAAUAUUACGCACC | -1.15 ± 0.17 | -1.45 ± 0.16
GCAAAGCAAUAUUACGCCGA | -2.04 ± 0.31 | -1.82 ± 0.21
GCAAAGCAAUAUUACGCGCU | -3.48 ± 0.23 | -2.01 ± 0.18

Sequence | self-splicing fitness (ln) (30 °C) | self-splicing fitness (ln) (37 °C)
GCAAAGCAAUAUUACGCGGA | -3.48 ± 0.27 | -1.94 ± 0.17
GCAAAGCAAUAUUACGCGGU | -4.16 ± 0.22 | -2.67 ± 0.24
GCAAAGCAAUAUUACGCUAA | -2.19 ± 0.14 | -1.29 ± 0.12
GCAAAGCAAUAUUACGCUGA | -2.59 ± 0.12 | -2.04 ± 0.11
GCAAAGCAAUAUUACGGACG | -1.4 ± 0.091 | 0.261 ± 0.14
GCAAAGCAAUAUUACGGCAA | -0.673 ± 0.094 | -0.722 ± 0.091
GCAAAGCAAUAUUACGGCAC | -0.648 ± 0.081 | -0.426 ± 0.09
GCAAAGCAAUAUUACGGCAG | -3.61 ± 0.22 | -2.81 ± 0.31
GCAAAGCAAUAUUACGGCCA | -2.11 ± 0.24 | -0.962 ± 0.19
GCAAAGCAAUAUUACGGUAG | -2.68 ± 0.14 | -3.34 ± 0.23
GCAAAGCAAUAUUACGUAAA | -0.824 ± 0.062 | -0.5 ± 0.085
GCAAAGCAAUAUUACGUAAG | -1.92 ± 0.1 | -0.569 ± 0.11
GCAAAGCAAUAUUACGUCCU | -0.435 ± 0.1 | 0.035 ± 0.12
GCAAAGCAAUAUUACGUCUC | -1.02 ± 0.11 | -0.501 ± 0.12
GCAAAGCAAUAUUACGUGGU | -3.38 ± 0.15 | -2.59 ± 0.15
GCAAAGCAAUAUUACGUUCA | -0.597 ± 0.064 | -0.534 ± 0.077
GCACAGCAAUAUUACGAAGC | -2.52 ± 0.23 | -0.749 ± 0.15
GCACAGCAAUAUUACGAGAC | -2.51 ± 0.17 | -2.06 ± 0.18
GCACAGCAAUAUUACGAGUA | -1.31 ± 0.084 | -0.881 ± 0.088
GCACAGCAAUAUUACGAUAA | -1.31 ± 0.07 | -0.957 ± 0.096
GCACAGCAAUAUUACGAUCC | -0.381 ± 0.11 | -0.0747 ± 0.16
GCACAGCAAUAUUACGCAUG | -2.95 ± 0.19 | -0.809 ± 0.12
GCACAGCAAUAUUACGCCGG | -1.25 ± 0.1 | -0.896 ± 0.16
GCACAGCAAUAUUACGCGUA | -0.987 ± 0.094 | -0.173 ± 0.086
GCACAGCAAUAUUACGCUAA | -1.6 ± 0.092 | -0.281 ± 0.089

Sequence | self-splicing fitness (ln) (30 °C) | self-splicing fitness (ln) (37 °C)
GCACAGCAAUAUUACGGAGU | -1.69 ± 0.05 | -0.838 ± 0.061
GCACAGCAAUAUUACGGAUA | -2.49 ± 0.17 | -1.38 ± 0.12
GCACAGCAAUAUUACGGCCC | -0.235 ± 0.1 | -0.615 ± 0.13
GCACAGCAAUAUUACGGGCG | -1.4 ± 0.071 | 0.0832 ± 0.081
GCACAGCAAUAUUACGGGGU | -2.83 ± 0.13 | -1.35 ± 0.11
GCACAGCAAUAUUACGUACC | -1.47 ± 0.096 | -0.717 ± 0.13
GCACAGCAAUAUUACGUACG | -0.945 ± 0.092 | -0.0901 ± 0.098
GCACAGCAAUAUUACGUAGG | -0.466 ± 0.055 | -0.109 ± 0.069
GCACAGCAAUAUUACGUAGU | -0.976 ± 0.057 | -0.516 ± 0.072
GCACAGCAAUAUUACGUAUA | -0.999 ± 0.06 | -0.413 ± 0.07
GCACAGCAAUAUUACGUAUG | -2.21 ± 0.073 | -1.52 ± 0.079
GCACAGCAAUAUUACGUCAC | -3.68 ± 0.26 | -2.42 ± 0.32
GCACAGCAAUAUUACGUCAU | -1.89 ± 0.071 | -0.731 ± 0.082
GCACAGCAAUAUUACGUCCG | -0.402 ± 0.09 | -0.201 ± 0.11
GCACAGCAAUAUUACGUCUU | -0.723 ± 0.053 | 0.267 ± 0.064
GCACAGCAAUAUUACGUGAA | 0.0235 ± 0.053 | -0.102 ± 0.068
GCACAGCAAUAUUACGUGAU | -0.331 ± 0.029 | 0.114 ± 0.044
GCACAGCAAUAUUACGUGGC | -4.03 ± 0.18 | -2.74 ± 0.15
GCAGAGCAAUAUUACGAACU | -0.968 ± 0.14 | -1.1 ± 0.19
GCAGAGCAAUAUUACGAAUA | -3.67 ± 0.32 | -2.78 ± 0.26
GCAGAGCAAUAUUACGAAUG | -2.71 ± 0.35 | –
GCAGAGCAAUAUUACGACAC | -1.46 ± 0.2 | -0.344 ± 0.33
GCAGAGCAAUAUUACGAGUU | -4.28 ± 0.16 | -1.82 ± 0.095
